Reference: paper PMC9482650, “Quantitative fragmentomics allow affinity mapping of interactomes” (Nature Communications, 2022)

T1: DLG3_3, Q92796
T1 sequence (Q92796 374-475, limits assumed, looked up): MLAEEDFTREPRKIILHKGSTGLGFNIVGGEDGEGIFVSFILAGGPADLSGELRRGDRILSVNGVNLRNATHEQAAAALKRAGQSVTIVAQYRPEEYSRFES

T2: LIN7B, Q9HAP6
T2 sequence (Q9HAP6 88-185, limits assumed, looked up): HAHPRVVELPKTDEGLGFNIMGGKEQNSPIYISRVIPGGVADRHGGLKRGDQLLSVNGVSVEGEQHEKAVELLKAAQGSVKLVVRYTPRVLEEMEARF

T3: RADIL, Q96JH8
T3 sequence (Q96JH8 971-1071, limits assumed, looked up): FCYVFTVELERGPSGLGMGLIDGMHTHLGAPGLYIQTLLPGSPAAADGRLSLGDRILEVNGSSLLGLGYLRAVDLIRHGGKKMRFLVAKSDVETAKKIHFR

T4: GRIP1_4, Q9Y3R0
T4 sequence (Q9Y3R0 467-571, limits assumed, looked up): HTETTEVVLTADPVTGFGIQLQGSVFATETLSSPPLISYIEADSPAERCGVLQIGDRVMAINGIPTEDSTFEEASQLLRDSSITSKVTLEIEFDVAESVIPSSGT

T5: LNX2_2, Q8N448
T5 sequence (Q8N448 334-432, limits assumed, looked up): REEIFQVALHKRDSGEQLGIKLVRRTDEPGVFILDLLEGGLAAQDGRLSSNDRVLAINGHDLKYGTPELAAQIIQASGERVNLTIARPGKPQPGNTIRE

T6: TIAM2, Q8IVF5
T6 sequence (Q8IVF5 885-986, limits assumed, looked up): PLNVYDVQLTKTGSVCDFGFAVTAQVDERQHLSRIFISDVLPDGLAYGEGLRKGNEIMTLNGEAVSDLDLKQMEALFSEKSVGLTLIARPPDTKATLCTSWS

T7: MPP2, Q14168
T7 sequence (Q14168 180-250, limits assumed, looked up): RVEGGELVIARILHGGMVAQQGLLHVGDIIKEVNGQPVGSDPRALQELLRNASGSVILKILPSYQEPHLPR

T8: DVL3, Q92997
T8 sequence (Q92997 244-331, limits assumed, looked up): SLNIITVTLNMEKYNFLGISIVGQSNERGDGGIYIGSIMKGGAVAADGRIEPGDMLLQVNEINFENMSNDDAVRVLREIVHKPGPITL

T9: ARHGEF11, O15085
T9 sequence (O15085 42-136, limits assumed, looked up): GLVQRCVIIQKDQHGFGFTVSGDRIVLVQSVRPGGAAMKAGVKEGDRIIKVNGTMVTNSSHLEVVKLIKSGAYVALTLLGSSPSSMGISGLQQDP

T10: LNX2_3, Q8N448
T10 sequence (Q8N448 463-564, limits assumed, looked up): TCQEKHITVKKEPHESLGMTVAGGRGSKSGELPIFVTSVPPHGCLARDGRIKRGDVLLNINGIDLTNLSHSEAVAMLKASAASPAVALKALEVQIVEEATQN

T11: NHERF3_1, Q5T2W1
T11 sequence (Q5T2W1 4-100, limits assumed, looked up): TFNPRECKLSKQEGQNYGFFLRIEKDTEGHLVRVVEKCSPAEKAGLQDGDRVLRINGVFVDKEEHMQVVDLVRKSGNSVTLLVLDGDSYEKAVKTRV

T12: GRIP1_5, Q9Y3R0
T12 sequence (Q9Y3R0 568-668, limits assumed, looked up): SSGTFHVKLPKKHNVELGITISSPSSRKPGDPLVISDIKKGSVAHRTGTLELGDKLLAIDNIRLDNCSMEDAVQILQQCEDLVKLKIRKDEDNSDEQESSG

B1: CRHR1, P34998 (peptide)
chain: FHSIKQSTAV
B2: FKBP4, Q02790 (peptide)
chain: GSQSQVETEA
B3: EXOC4, Q96A65 (peptide)
chain: ATKDKKITTV

These binders were tested against NOS1, P29475 (assay: holdup assay). Conditions: plain residues with an end cap or a label only (N-terminal biotin on a linker: ado-ado).
Sequence of NOS1, P29475 (P29475 9-101): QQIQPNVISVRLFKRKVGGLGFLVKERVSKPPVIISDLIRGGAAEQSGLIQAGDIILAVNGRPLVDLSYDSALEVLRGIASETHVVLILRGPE
Design: key: below the threshold = too weak to quantify, mostly under pKd 3.1 to 4
B1 showed a pKd of 4.19. For B2, the pKd was “below the threshold”. For B3, the pKd was 3.69.

What follows are binders tested against Inadl_2, Q8NI35 (assay: holdup assay). Conditions: plain residues with an end cap or a label only (N-terminal biotin on a linker: ado-ado).
Sequence of Inadl_2, Q8NI35 (Q8NI35 238-335): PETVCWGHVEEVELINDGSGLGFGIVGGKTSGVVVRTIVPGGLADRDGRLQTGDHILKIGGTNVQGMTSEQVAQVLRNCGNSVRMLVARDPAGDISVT
Design: key: below the threshold = too weak to quantify, mostly under pKd 3.1 to 4
In the case of B1, the pKd is reported as “below the threshold”. In the case of B2, the pKd is reported as “below the threshold”. For B3, the pKd was 3.51.

What follows are binders tested against DLG1_2, Q12959 (assay: holdup assay). Conditions: plain residues with an end cap or a label only (N-terminal biotin on a linker: ado-ado).
Sequence of DLG1_2, Q12959 (Q12959 314-412): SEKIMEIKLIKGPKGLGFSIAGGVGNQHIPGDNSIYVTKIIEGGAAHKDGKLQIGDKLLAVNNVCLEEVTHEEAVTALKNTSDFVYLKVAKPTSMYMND
Design: key: below the threshold = too weak to quantify, mostly under pKd 3.1 to 4
B1 was tested, and the pKd was 4.98. In the case of B2, the pKd is reported as “below the threshold”. Work on B3 yielded a pKd of 5.91.

What follows are binders tested against IL16_3, Q14005 (assay: holdup assay). Conditions: plain residues with an end cap or a label only (N-terminal biotin on a linker: ado-ado).
Sequence of IL16_3, Q14005 (Q14005 1107-1207): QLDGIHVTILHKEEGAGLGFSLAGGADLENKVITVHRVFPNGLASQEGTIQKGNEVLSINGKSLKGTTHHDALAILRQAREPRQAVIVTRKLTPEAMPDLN
Design: key: below the threshold = too weak to quantify, mostly under pKd 3.1 to 4
In the case of B1, the pKd is reported as “below the threshold”. B2 was tested, and the pKd was “below the threshold”. For B3, the pKd was “below the threshold”.

The binders below were run against T1, DLG3_3, Q92796 (assay: holdup assay). Conditions: plain residues with an end cap or a label only (N-terminal biotin on a linker: ado-ado).
Design: key: below the threshold = too weak to quantify, mostly under pKd 3.1 to 4
With B1 the pKd was 4.4. With B2 the pKd was “below the threshold”. For B3, the pKd was 4.56.

These binders were tested against T2, LIN7B, Q9HAP6 (assay: holdup assay). Conditions: plain residues with an end cap or a label only (N-terminal biotin on a linker: ado-ado).
Design: key: below the threshold = too weak to quantify, mostly under pKd 3.1 to 4
With B1 the pKd was “below the threshold”. With B2 the pKd was 3.62. B3 was tested, and the pKd was “below the threshold”.

Each binder was assayed against T3, RADIL, Q96JH8 (assay: holdup assay). Conditions: plain residues with an end cap or a label only (N-terminal biotin on a linker: ado-ado).
Design: key: below the threshold = too weak to quantify, mostly under pKd 3.1 to 4
B1 was tested, and the pKd was “below the threshold”. For B2, the pKd was “below the threshold”. In the case of B3, the pKd is reported as 4.14.

What follows are binders tested against T4, GRIP1_4, Q9Y3R0 (assay: holdup assay). Conditions: plain residues with an end cap or a label only (N-terminal biotin on a linker: ado-ado).
Design: key: below the threshold = too weak to quantify, mostly under pKd 3.1 to 4
With B1 the pKd was “below the threshold”. For B2, the pKd was “below the threshold”. With B3 the pKd was 3.48.

The binders below were run against T5, LNX2_2, Q8N448 (assay: holdup assay). Conditions: plain residues with an end cap or a label only (N-terminal biotin on a linker: ado-ado).
Design: key: below the threshold = too weak to quantify, mostly under pKd 3.1 to 4
With B1 the pKd was 4.16. For B2, the pKd was “below the threshold”. Work on B3 yielded a pKd of 5.24.

What follows are binders tested against PARD3_3, Q8TEW0 (assay: holdup assay). Conditions: plain residues with an end cap or a label only (N-terminal biotin on a linker: ado-ado).
Sequence of PARD3_3, Q8TEW0 (Q8TEW0 582-685): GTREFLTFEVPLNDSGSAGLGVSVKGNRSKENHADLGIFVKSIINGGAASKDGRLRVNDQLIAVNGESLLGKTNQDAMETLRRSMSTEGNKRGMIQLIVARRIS
Design: key: below the threshold = too weak to quantify, mostly under pKd 3.1 to 4
B1 was tested, and the pKd was “below the threshold”. B2 was tested, and the pKd was “below the threshold”. In the case of B3, the pKd is reported as “below the threshold”.

What follows are binders tested against MAGI2_2, Q86UL8 (assay: holdup assay). Conditions: plain residues with an end cap or a label only (N-terminal biotin on a linker: ado-ado).
Sequence of MAGI2_2, Q86UL8 (Q86UL8 410-522): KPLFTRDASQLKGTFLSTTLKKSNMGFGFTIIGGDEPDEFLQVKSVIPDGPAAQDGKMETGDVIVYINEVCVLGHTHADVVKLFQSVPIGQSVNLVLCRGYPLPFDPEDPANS
Design: key: below the threshold = too weak to quantify, mostly under pKd 3.1 to 4
Binder B1 has a pKd of 5.03. In the case of B2, the pKd is reported as “below the threshold”. Binder B3 has a pKd of 5.52.

The binders below were run against GRIP2_5, Q9C0E4 (assay: holdup assay). Conditions: plain residues with an end cap or a label only (N-terminal biotin on a linker: ado-ado).
Sequence of GRIP2_5, Q9C0E4 (Q9C0E4 544-642): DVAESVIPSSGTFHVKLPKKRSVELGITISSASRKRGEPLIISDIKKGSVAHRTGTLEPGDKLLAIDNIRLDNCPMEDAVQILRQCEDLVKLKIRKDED
Design: key: below the threshold = too weak to quantify, mostly under pKd 3.1 to 4
B1 was tested, and the pKd was “below the threshold”. With B2 the pKd was “below the threshold”. B3 gave a pKd of 3.49.

These binders were tested against LAP2, Q96RT1 (assay: holdup assay). Conditions: plain residues with an end cap or a label only (N-terminal biotin on a linker: ado-ado).
Sequence of LAP2, Q96RT1 (Q96RT1 other isoform, or with tags, fused parts or gaps): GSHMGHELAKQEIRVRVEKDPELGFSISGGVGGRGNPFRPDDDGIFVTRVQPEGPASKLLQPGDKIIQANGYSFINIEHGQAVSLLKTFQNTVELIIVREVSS
Design: key: below the threshold = too weak to quantify, mostly under pKd 3.1 to 4
In the case of B1, the pKd is reported as 3.85. B2 was tested, and the pKd was “below the threshold”. B3 showed a pKd of 3.54.

Each binder was assayed against T6, TIAM2, Q8IVF5 (assay: holdup assay). Conditions: plain residues with an end cap or a label only (N-terminal biotin on a linker: ado-ado).
Design: key: below the threshold = too weak to quantify, mostly under pKd 3.1 to 4
In the case of B1, the pKd is reported as “below the threshold”. Work on B2 yielded a pKd of 4.04. For B3, the pKd was “below the threshold”.

These binders were tested against MAST2, Q6P0Q8 (assay: holdup assay). Conditions: plain residues with an end cap or a label only (N-terminal biotin on a linker: ado-ado).
Sequence of MAST2, Q6P0Q8 (Q6P0Q8 1099-1202): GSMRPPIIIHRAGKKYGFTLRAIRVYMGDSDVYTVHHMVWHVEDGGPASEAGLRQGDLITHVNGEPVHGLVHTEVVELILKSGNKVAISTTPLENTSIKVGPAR
Design: key: below the threshold = too weak to quantify, mostly under pKd 3.1 to 4
B1 gave a pKd of 5.35. B2 was tested, and the pKd was “below the threshold”. Binder B3 has a pKd of 4.92.

What follows are binders tested against T7, MPP2, Q14168 (assay: holdup assay). Conditions: plain residues with an end cap or a label only (N-terminal biotin on a linker: ado-ado).
Design: key: below the threshold = too weak to quantify, mostly under pKd 3.1 to 4
For B1, the pKd was “below the threshold”. B2 was tested, and the pKd was “below the threshold”. For B3, the pKd was “below the threshold”.

Each binder was assayed against T8, DVL3, Q92997 (assay: holdup assay). Conditions: plain residues with an end cap or a label only (N-terminal biotin on a linker: ado-ado).
Design: key: below the threshold = too weak to quantify, mostly under pKd 3.1 to 4
B1 was tested, and the pKd was “below the threshold”. For B2, the pKd was “below the threshold”. For B3, the pKd was “below the threshold”.

These binders were tested against T9, ARHGEF11, O15085 (assay: holdup assay). Conditions: plain residues with an end cap or a label only (N-terminal biotin on a linker: ado-ado).
Design: key: below the threshold = too weak to quantify, mostly under pKd 3.1 to 4
For B1, the pKd was 5. B2 was tested, and the pKd was “below the threshold”. B3 gave a pKd of 4.38.

These binders were tested against SNX27, Q96L92 (assay: holdup assay). Conditions: plain residues with an end cap or a label only (N-terminal biotin on a linker: ado-ado).
Design: key: below the threshold = too weak to quantify, mostly under pKd 3.1 to 4
Binder B1 has a pKd of 4.91. With B2 the pKd was “below the threshold”. B3 showed a pKd of 4.38.

Each binder was assayed against FRMPD4, Q14CM0 (assay: holdup assay). Conditions: plain residues with an end cap or a label only (N-terminal biotin on a linker: ado-ado).
Sequence of FRMPD4, Q14CM0 (Q14CM0 67-160): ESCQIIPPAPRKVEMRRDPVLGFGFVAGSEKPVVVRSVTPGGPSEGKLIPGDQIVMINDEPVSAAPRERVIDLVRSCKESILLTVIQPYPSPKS
Design: key: below the threshold = too weak to quantify, mostly under pKd 3.1 to 4
B1 was tested, and the pKd was “below the threshold”. In the case of B2, the pKd is reported as “below the threshold”. B3 was tested, and the pKd was 3.55.

What follows are binders tested against IL16_4, Q14005 (assay: holdup assay). Conditions: plain residues with an end cap or a label only (N-terminal biotin on a linker: ado-ado).
Sequence of IL16_4, Q14005 (Q14005 1229-1329): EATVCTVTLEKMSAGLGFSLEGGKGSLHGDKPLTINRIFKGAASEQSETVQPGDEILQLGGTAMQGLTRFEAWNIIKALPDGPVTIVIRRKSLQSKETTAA
Design: key: below the threshold = too weak to quantify, mostly under pKd 3.1 to 4
With B1 the pKd was “below the threshold”. With B2 the pKd was “below the threshold”. With B3 the pKd was “below the threshold”.

Each binder was assayed against GIPC2, Q8TF65 (assay: holdup assay). Conditions: plain residues with an end cap or a label only (N-terminal biotin on a linker: ado-ado).
Sequence of GIPC2, Q8TF65 (Q8TF65 112-203): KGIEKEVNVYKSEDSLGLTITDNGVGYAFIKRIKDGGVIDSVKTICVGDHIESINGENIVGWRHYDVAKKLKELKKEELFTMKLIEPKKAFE
Design: key: below the threshold = too weak to quantify, mostly under pKd 3.1 to 4
For B1, the pKd was “below the threshold”. Work on B2 yielded a pKd of 3.79. With B3 the pKd was “below the threshold”.

The binders below were run against TJP2_1, Q9UDY2 (assay: holdup assay). Conditions: plain residues with an end cap or a label only (N-terminal biotin on a linker: ado-ado).
Sequence of TJP2_1, Q9UDY2 (Q9UDY2 24-128): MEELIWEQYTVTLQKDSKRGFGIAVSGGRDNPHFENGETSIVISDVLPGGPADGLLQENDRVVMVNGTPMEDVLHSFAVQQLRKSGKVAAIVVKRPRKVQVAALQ
Design: key: below the threshold = too weak to quantify, mostly under pKd 3.1 to 4
Binder B1 has a pKd of 3.6. With B2 the pKd was “below the threshold”. B3 gave a pKd of 3.87.

These binders were tested against T10, LNX2_3, Q8N448 (assay: holdup assay). Conditions: plain residues with an end cap or a label only (N-terminal biotin on a linker: ado-ado).
Design: key: below the threshold = too weak to quantify, mostly under pKd 3.1 to 4
For B1, the pKd was “below the threshold”. In the case of B2, the pKd is reported as “below the threshold”. In the case of B3, the pKd is reported as 3.48.

What follows are binders tested against T11, NHERF3_1, Q5T2W1 (assay: holdup assay). Conditions: plain residues with an end cap or a label only (N-terminal biotin on a linker: ado-ado).
Design: key: below the threshold = too weak to quantify, mostly under pKd 3.1 to 4
B1 was tested, and the pKd was 5.52. With B2 the pKd was “below the threshold”. B3 was tested, and the pKd was “below the threshold”.

The binders below were run against T12, GRIP1_5, Q9Y3R0 (assay: holdup assay). Conditions: plain residues with an end cap or a label only (N-terminal biotin on a linker: ado-ado).
Design: key: below the threshold = too weak to quantify, mostly under pKd 3.1 to 4
With B1 the pKd was “below the threshold”. For B2, the pKd was “below the threshold”. In the case of B3, the pKd is reported as “below the threshold”.
